Patent US20260227403A1 (HENRY M JACKSON FOUNDATION FOR THE ADVANCEMENT OF MILITARY …, published 2026)

What was measured:
[1] = molecular target: T1, overlapping peptide P6 (12 amino acids, FIG. 3 panel A) (human); assay: ELISA: 500 ng peptide coated per well, 29E4 titrated 0-1000 ng/mL, HRP goat anti-rabbit Ig 1:16,000, ABS 450 nm, duplicates
T1 construct: The overlapping 12-mer is meant here
T1 peptide: PQGFKQEYHDPV
Excerpt: (§1) HRP Goat anti-rabbit Ig was applied at 1:16,000 dilution in all reactions.
(§2) Peptides were synthesized to achieve ≥70% HPLC purity by a commercial vendor (GenScript Biotech, Piscataway, NJ). Peptides were reconstituted in either water, or with addition of acetonitrile, methanol, 10% acetic acid, or DMSO, depending on the overall charge of each peptide. Key residues required for mAb binding were probed by ELISA using overlapping peptides, truncated peptides and alanine substituted peptides. Reactions were performed in duplicate using NUNC 96-well flatbottom MaxiSorp plates (Thermo Scientific). After coating each well with 500 ng of peptide in 100 μL coating buffer (50 mM NaHCO₃, pH 9.6), the plates were sealed and incubated at 4° C. overnight. […] Plates were then washed once with wash buffer, incubated with 100 μL mAb 29E4 (serially diluted from 1 mg/mL) for 1 hour at 37° C. Plates were further washed four times with wash buffer, and then incubated at 37° C. with 100 μL of a horse radish peroxidase (HRP)-conjugated secondary antibody against the primary antibody, diluted 1:16,000 according to manufacturer's protocols (KPL, Inc., Gaithersburg, MD). After washing four times with wash buffer, 100 μL of K-Blue Aqueous TMB substrate (Neogen, Lexington, KY) was added to the plates and incubated uncovered for 30 minutes at room temperature. To stop the reaction, 100 μL of 2 N Sulphuric acid was added to each well and absorbance were measured immediately at 450 nm. All dilutions of reagents were performed in ELISA diluent (20% NGS in 1×PBS with 0.1% Triton-X 100).

[2] = molecular target: T2, overlapping peptide P5 (12 amino acids, FIG. 3 panel A) (human); assay: as above
T2 construct: The overlapping 12-mer is meant here
T2 peptide: PFPPQGFKQEYH
Excerpt: as §1, §2

[3] = molecular target: T3, ETV1 immunogenic peptide P1 (human); assay: as above
T3 construct: 27 amino acid peptide, ETV1 residues 212-238; also called immunogen peptide; ETV1 P1 peptide
Excerpt: as §1, §2

[4] = molecular target: T4, overlapping peptide P3 (12 amino acids, FIG. 3 panel A) (human); assay: as above
T4 construct: The overlapping 12-mer is meant here
T4 peptide: MSEPNIPFPPQG
Excerpt: as §1, §2

[5] = molecular target: T5, overlapping peptide P7 (12 amino acids, FIG. 3 panel A) (human); assay: as above
T5 construct: The overlapping 12-mer is meant here
T5 peptide: FKQEYHDPVYEH
Excerpt: as §1, §2

FLAG-SPDEF (NM_012391) = molecular target: T6, FLAG-SPDEF (NM_012391) (UniProt O95238 1-335); assay: immunoblot of cell lysates (HEK-293 2 µg per lane) probed with 29E4; the protein is shown present in panels D and F
T6 construct: Expressed in HEK-293 cells and tested as cell lysate on an immunoblot; also called SAM pointed domain-containing ETS transcription factor; not shown: FLAG tag
T6 sequence (looked up): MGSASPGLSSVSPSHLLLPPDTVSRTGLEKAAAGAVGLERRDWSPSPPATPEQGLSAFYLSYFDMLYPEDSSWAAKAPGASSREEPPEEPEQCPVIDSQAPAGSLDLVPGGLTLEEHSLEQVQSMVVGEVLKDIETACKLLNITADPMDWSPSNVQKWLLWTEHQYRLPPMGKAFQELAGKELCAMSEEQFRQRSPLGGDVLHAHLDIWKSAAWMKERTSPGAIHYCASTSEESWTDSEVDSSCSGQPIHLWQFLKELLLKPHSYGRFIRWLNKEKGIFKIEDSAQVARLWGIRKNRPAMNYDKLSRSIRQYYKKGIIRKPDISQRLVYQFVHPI
Method: (§3) Immunoblots using antibodies against ETV1 (A and H), ETV4 (B), ERG (C), SPDEF (D), FLI1 (E), FLAG (F), and GAPDH (G), as a loading control. […] PC3 cells were transfected with 25 nM non-targeting (NT) siRNA or ETV-1 siRNA oligos (lanes 1 and 2, respectively). […] were infected with either a control vector (lane 10) or adenoviral vector expressing FLI1 (lanes 11).
(§4) Cell lysates were then cleared by centrifugation at 10,000×g for 15 minutes at 4° C. and transferred to fresh tubes. Protein concentration was measured using Protein Assay Reagent (Bio-Rad, Hercules, CA). […] Separated proteins were transferred onto PVDF membranes using a Trans-Blot SD semi-dry transfer cell (BioRad) at 25 V for 90 minutes. Membranes were blocked in blocking buffer (Tris buffered saline with 0.25% Tween 20 (TBST) containing 1% BSA) for one hour at room temperature before incubation with primary antibodies (1 ng/mL) for 12 hours at 4° C. Membranes were then washed with wash buffer (TBST) in three ten-minute washes before treatment with IRDye 680RD conjugated goat anti-rabbit or IRDye 800 RD conjugated goat anti-mouse secondary antibodies (LI-COR Biosciences, Lincoln, NE) for three hours at room temperature.

[6] = molecular target: T7, ERG3 (pCMV-ERG3 plasmid, Exons 5-16, NM_001136154) (UniProt P11308-3 40-486); assay: immunoblot of cell lysates (HEK-293 2 µg per lane) probed with 29E4; the protein is shown present in panel C
T7 construct: Expressed in HEK-293 cells and tested as cell lysate on an immunoblot; also called ETS Transcription Factor ERG
T7 sequence (looked up): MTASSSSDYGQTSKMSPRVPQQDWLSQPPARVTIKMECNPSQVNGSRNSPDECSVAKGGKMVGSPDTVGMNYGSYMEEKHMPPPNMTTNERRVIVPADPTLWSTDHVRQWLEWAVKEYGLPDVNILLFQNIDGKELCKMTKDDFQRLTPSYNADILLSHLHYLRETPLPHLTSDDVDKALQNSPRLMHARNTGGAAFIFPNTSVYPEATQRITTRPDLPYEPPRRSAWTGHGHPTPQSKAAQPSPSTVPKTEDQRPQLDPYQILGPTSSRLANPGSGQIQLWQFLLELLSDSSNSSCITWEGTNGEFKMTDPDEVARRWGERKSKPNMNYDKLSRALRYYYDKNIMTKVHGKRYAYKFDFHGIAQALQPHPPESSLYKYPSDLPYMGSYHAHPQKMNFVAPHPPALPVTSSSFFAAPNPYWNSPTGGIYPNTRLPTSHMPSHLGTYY
Method: as §3, §4

T3 sequence (peptide, as listed by the source): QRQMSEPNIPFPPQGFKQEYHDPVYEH

B1: ETV1 rabbit monoclonal antibody (29E4) (antibody, V domains shown)
VH: QELEESGGDLVKPGASLTLTCTASGFFFSAENHICWVRQAPGKGLEWIGCVYIGSYVGGSGDPYYASWAKGRFTISKTSSTTVTLQMSSLTAADTATYFCARDLGSLWGPGTLVTVSS
VL: DVVMTQTASSVSAAVGGTVTIACQSSQSVYDNNNLAWFQQKPGQPPKRLIYSASTLASGVSSRFKGSGYGTQFTLTISDVQCDDAATYYCVGAFSGYIFVFGGGTEVVVK
notes: constant regions are not; also called 29E4 mAb; ETV1 29E4 mAb
For B1, the binding result [1] was “no binding (tested: 1000 ng/mL)”, the binding result [2] was “binds” and the “EC50 (read off the curve)” value [3] was ~0.02 µg/mL. B1: binds [4]; no binding (tested: 1000 ng/mL) [5]; no binding (FLAG-SPDEF (NM_012391)). B1: no binding [6].
